Assay [1] addresses T1, cynomolgus IL12Rβ1 (cynomolgus, UniProt A0A2K5VWV1 24-662).
T1 construct: whole, on cells; also called cyno IL12Rβ1; Cyno IL-12Rβ1
The assay can be described thus: FACS, 1 µg/ml IgG4, BaF3 cells expressing cyno IL12Rβ1. As to the method:
(§1) Cells of the respective cell line (BaF3 cells stable transfected with cyno and human IL12Rβ1; HEK EBNA and Jurkat cells stable transfected with cyno IL12Rβ1) were counted and adjusted to 2×10⁷ cells/ml in PBS/3% FCS/0.02% NaN₃ (FAGS buffer). FAGS staining was performed in V-bottom 96-well microtiter plates (NUNC™, Wiesbaden, Germany) and 1×10⁵ cells per well were mixed with a) purified Fab fragments or b) purified IgG4 or c) positive control antibody (mouse anti IL12Rβ1, R&D Systems, Cat#: MAB839), diluted in FACS buffer and incubated at […] for 1 h. Cells were then washed 2× with 200 μl FACS buffer/well and taken up in 100 μl phycoerythrin-conjugated goat anti-human IgG (H+L) secondary antibody (Jackson ImmunoResearch) which has been diluted 1:200 in FACS buffer. After 45 min incubation at 4° C. cells were washed 3× with FAGS buffer, resuspended in 100 μl of FACS buffer and cell surface binding of IL12Rβ1 specific antibodies was measured via FL2 fluorescence intensity of cells in FACSCalibur™ (Becton Dickinson).
Background: In flow cytometry, cells or beads pass a laser one at a time.

Assay [2] has as its target T1, cynomolgus IL12Rβ1. The assay can be described thus: FACS on Baf3 cells transfected with cyno IL12Rβ1, IgG4. As to the method:
as §1

A further assay addresses T2, human IL4Rα/Fc (human, UniProt P24394 26-232, limits assumed).
T2 construct: also called rh IL4Ra/Fc
T2 sequence (looked up): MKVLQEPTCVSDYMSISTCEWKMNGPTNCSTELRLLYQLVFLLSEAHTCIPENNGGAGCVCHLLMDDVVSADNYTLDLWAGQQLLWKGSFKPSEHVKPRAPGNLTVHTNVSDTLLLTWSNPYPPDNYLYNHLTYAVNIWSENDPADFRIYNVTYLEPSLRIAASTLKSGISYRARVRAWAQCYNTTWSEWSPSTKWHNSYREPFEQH
As to the kind of experiment: ELISA, antigen directly coated, IgG4. Background: ELISA stands for enzyme-linked immunosorbent assay.

In the next assay the target is T3, human IL12Rβ1 (human, UniProt P42701 24-662).
T3 construct: On stably transfected Ba/F3 cells in FACS; on primary human T cells within PBMC in the functional assay; also called human IL12Rβ1 transfected Baf3 cells; Ba/F3/IL12Rβ1 expressing cells
As to the kind of experiment: FACS on Baf3 cells transfected with human IL12Rβ1, IgG4. The procedure: as §1

The target in assay [3] is T1, cynomolgus IL12Rβ1. The assay can be described thus: FACS, 1 µg/ml Fab, Jurkat cells expressing cyno IL12Rβ1. As to the method:
as §1

In assay [4] the target is T4, recombinant human IL12Rβ1/Fc fusion protein (human, UniProt P42701 24-545).
T4 construct: Bought from R&D Systems; Partly used biotinylated; also called rh IL12Rβ1
The assay can be described thus: solution equilibrium titration (SET), BioVeris ECL, Fab.

Assay [5] addresses T1, cynomolgus IL12Rβ1. The assay can be described thus: FACS, 1 µg/ml Fab, HEK cells expressing cyno IL12Rβ1. As to the method: as §1
For assay [6], the target named is T4, recombinant human IL12Rβ1/Fc fusion …. The assay can be described thus: BioVeris competition; Fab titrated with IL12Rβ1/Fc, competitor rhIL-23 on beads. The procedure:
(§2) For the IL12 and IL23 binding inhibition assay, 25 μg recombinant human IL12 and 20 μg IL23 (R&D Systems) were directly coupled (NHS/EDC coupling) to 250 μl carboxylic acid M-270 Dynal magnetic beads (2×109 beads/ml), 50 μl Fab antibodies per well (20 nM stock) in 1:4 dilution steps (Fab concentration: 0.6 pM-10 nM) were incubated for 2 h with 50 μl of 40-100 pM IL12Rβ1/Fc fusion in 96 well plates (Nunc). 25 μl IL12 or IL23 coated beads and 1:500 diluted Streptavidin detection antibody labeled with BV-tag™ according to instructions of supplier (BioVeris Europe) were added to each well and incubated for 1.5 h. Detection was performed by BioVeris M-384 SERIES® Workstation (BioVeris Europe). EC50 determination was performed by evaluation of the resulting data by a 4-parameter logistic fit model (XLfit, IDBS).

Assay [7] has the same target. The assay can be described thus: solution equilibrium titration (SET), BioVeris ECL, Fab. This is another data set of the same source.
Assay [8] shares this target. As to the kind of experiment: BioVeris competition; Fab titrated with IL12Rβ1/Fc, competitor rhIL-12 on beads. The procedure:
as §2

Like-named read-outs stand apart in the source and are kept apart here.

B1: MOR05271 IgG4 (antibody, V domains shown)
VH: QVQLKESGPALVKPTQTLTLTCTFSGFSLSTSTMGVSWIRQPPGKALEWLAWIYWDDDKDYSTSLKSRLTISKDTSKNQVVLTMTNMDPVDTATYYCARANPDLGYFDYWGQGTLVTVSS
VL: DIALTQPASVSGSPGQSITISCTGTSSDLGESNYVSWYQQHPGKAPKVMIYDVNKRPSGVSNRFSGSKSGNTASLTISGLQAEDEADYYCGSYDEEDNVFGGGTKLTVLG
notes: IgG4
A word on the EC50: it is the midpoint of the concentration-response curve. Take B1: the “MFI (mean fluorescent intensity)” value with cynomolgus IL12Rβ1 [1] was found to be 134. Besides, the figures for the EC50 with cynomolgus IL12Rβ1 [2] and in the assay with human IL12Rβ1 were 0.073 nM and 0.143 nM, respectively. The binding result with human IL4Rα/Fc is “no binding”.

B2: MOR05271 Fab (Fab, V domains shown)
VH: B1 VH
VL: B1 VL
Broadly, the Kd is the concentration at which binding is half-saturated. Take B2: the “MFI (mean fluorescent intensity)” value came out at 3 with cynomolgus IL12Rβ1 [3] and 2 with cynomolgus IL12Rβ1 [5]. For the same molecule, the Kd in assay [4] and in [7] was 0.021 nM each time. In addition, the EC50 in assay [6] amounted to 0.025 nM; in assay [8], 0.01 nM.

B3: MOR05281 IgG4 (antibody, V domains shown)
VH: QVQLKESGPALVKPTQTLTLTCTFSGFSLSTRGVGVSWIRQPPGKALEWLALIYWDEDKYYSTSLKTRLTISKDTSKNQVVLTMTNMDPVDTATYYCARYQSGYYYNNDGWGVDIWGQGTLVTVSS
VL: DIQMTQSPSSLSASVGDRVTITCRASQSISSWLNWYQQKPGKAPKLLIYAASSLQSGVPSRFSGSGSGTDFTLTISSLQPEDFATYYCQQYYAFPHTFGQGTKVEIKR
notes: IgG4
Consider B3, for which the “MFI (mean fluorescent intensity)” value with cynomolgus IL12Rβ1 [1] came out at 144. Further, the EC50 with cynomolgus IL12Rβ1 [2] was determined as 1 nM; in the assay with human IL12Rβ1, 1.2 nM. In addition, the binding result with human IL4Rα/Fc is “no binding”.

B4: MOR05281 Fab (Fab, V domains shown)
VH: B3 VH
VL: B3 VL
For B4, the “MFI (mean fluorescent intensity)” value with cynomolgus IL12Rβ1 [3] and with cynomolgus IL12Rβ1 [5] was 2 each time. In addition, the Kd in [4] and in assay [7] was 0.001 nM in each case. Moreover, the concentration for a half-maximal effect (EC50) in assay [6] amounted to 0.07 nM; in assay [8] it was 0.06 nM.

B5: MOR05286 Fab (Fab, V domains shown)
VH: QVQLKESGPALVKPTQTLTLTCTFSGFSLSTSGMGVSWIRQPPGKALEWLALIDWTDDKYYSTSLKTRLTISKDTSKNQVVLTMTNMDPVDTATYYCARTVGKGLYRVDNWGQGTLVTVSS
VL: DIELTQPPSVSVAPGQTARISCSGDNLGSKFAYWYQQKPGQAPVLVIYDDSKRPSGIPERFSGSNSGNTATLTISGTQAEDEADYYCQSWDSSSGNDVFGGGTKLTVLG
notes: also called MOR5286
Consider B5, for which the results for the “MFI (mean fluorescent intensity)” value with cynomolgus IL12Rβ1 [3] and with cynomolgus IL12Rβ1 [5] were 249 and 368, respectively. For the same molecule, the Kd in assay [4] and in [7] was 0.059 nM throughout. Also, the results for the EC50 in [6] and in assay [8] were 0.17 nM and 0.09 nM, respectively.

B6: MOR05286 IgG4 (antibody, V domains shown)
VH: B5 VH
VL: B5 VL
notes: IgG4; also called MOR5286
For the molecule B6, the “MFI (mean fluorescent intensity)” value with cynomolgus IL12Rβ1 [1] worked out at 271. Also, the EC50 with cynomolgus IL12Rβ1 [2] is 4.8 nM; in the assay with human IL12Rβ1, 2.4 nM. Also, the binding result with human IL4Rα/Fc is “no binding”.

B7: MOR05278 IgG4 (antibody, V domains shown)
VH: QVQLVESGGGLVQPGGSLRLSCAASGFTFSSYGMSWVRQAPGKGLEWVSYIEPKLFWYATFYAASVKGRFTISRDNSKNTLYLQMNSLRAEDTAVYYCARNDFMEPAYFALWGQGTLVTVSS
VL: DIELTQPPSVSVAPGQTARISCSGDNLGSYYAYWYQQKPGQAPVGVIYDDSERPSGIPERFSGSNSGNTATLTISGTQAEDEADYYCSSYTYSKNNVFGGGTKLTVLG
notes: IgG4
Take B7: in the assay with cynomolgus IL12Rβ1 [1], the “MFI (mean fluorescent intensity)” value worked out at 350. Also, the EC50 stood at 0.931 nM with cynomolgus IL12Rβ1 [2] and 0.9 nM with human IL12Rβ1. Besides, in the assay with human IL4Rα/Fc, the binding result is recorded as “no binding”.

B8: MOR05278 Fab (Fab, V domains shown)
VH: B7 VH
VL: B7 VL
B8: the “MFI (mean fluorescent intensity)” value in the assay with cynomolgus IL12Rβ1 [3] is 4; in the assay with cynomolgus IL12Rβ1 [5], 3. Also, the dissociation constant Kd in assay [4] and in assay [7] was 0.031 nM throughout. For the same molecule, the EC50 in assay [6] came to 0.24 nM; in assay [8] it was 0.08 nM.

For the origin of these results see patent US20120034231A1 (Novartis, published 2012).
